Drawing on patent publication US20230174655A1 (published 2023), this text covers Kd for 20 molecules.

The labels stand for the following.
T1: FcγRIIa type R extracellular domain with C-terminal His tag (human, UniProt P12318 34-217)
T1 construct: extracellular domain; also called FcγRIIa R; FcγRIIaR
T1 sequence (looked up): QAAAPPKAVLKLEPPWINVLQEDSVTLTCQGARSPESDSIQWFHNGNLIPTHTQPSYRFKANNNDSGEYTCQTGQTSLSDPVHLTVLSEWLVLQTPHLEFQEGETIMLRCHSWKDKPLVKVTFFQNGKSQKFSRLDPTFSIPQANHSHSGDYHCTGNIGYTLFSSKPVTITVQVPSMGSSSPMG

T2: FcγRIIb extracellular domain with C-terminal His tag (human, UniProt P31994 43-217)
T2 construct: extracellular domain; also called FcRIIb; FcgRIIb; not shown: His tag at the C terminus
T2 sequence (looked up): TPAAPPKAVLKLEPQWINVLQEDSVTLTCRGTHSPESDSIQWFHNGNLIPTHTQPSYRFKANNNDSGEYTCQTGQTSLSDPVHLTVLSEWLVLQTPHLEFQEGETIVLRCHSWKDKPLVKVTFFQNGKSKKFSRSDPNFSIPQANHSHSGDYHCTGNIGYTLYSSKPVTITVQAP

T3: FcγRIIa type R extracellular domain with C-terminal His tag (human, UniProt P12318 34-217)
T3 chain: T1 sequence (looked up)

B1: IL6R-PD079/IL6R-L (antibody, human IgG1, kappa)
heavy: QVQLQESGPGLVKPSETLSLTCAVSGHSISHDHAWSWVRQPPGEGLEWIGFISYSGITNYNPSLQGRVTISRDNSKNTLYLQMNSLRAEDTAVYYCARSLARTTAMDYWGEGTLVTVSSASTKGPSVFPLAPSSKSTSGGTAALGCLVKDYFPEPVTVSWNSGALTSGVHTFPAVLQSSGLYSLSSVVTVPSSSLGTQTYICNVNHKPSNTKVDKKVEPKSCDKTHTCPPCPAPELLGADSVFLFPPKPKDTLYISRTPEVTCVVVDVSHEDPEVKFNWYVDGVEVHNAKTKPREEQYNSTYRVVSVLTVLHQDWLNGKEYKCKVSNKALPAPIEKTISKAKGQPREPQVYTLPPSRDELTKNQVSLTCLVKGFYPSDIAVEWESNGQPENNYKTTPPVLDSDGSFFLYSKLTVDKSRWQQGNVFSCSVMHEALHYHYTQKSLSLSP
light: not shown
notes: H chain: IL6R-F11 with P238D/G237A (EU numbering); also called P238D/G237A; copies: 2 + 2
B2: IL6R-PD087/IL6R-L (antibody, human IgG1, kappa)
heavy: B1 heavy with A239M
light: not shown
notes: H chain: IL6R-F11 with P238D/G237M (EU numbering); also called P238D/G237M; copies: 2 + 2
B3: IL6R-PD082/IL6R-L (antibody, human IgG1, kappa)
heavy: B1 heavy with A239F
light: not shown
notes: H chain: IL6R-F11 with P238D/G237F (EU numbering); also called P238D/G237F; copies: 2 + 2
B4: IL6R-PD043/IL6R-L (antibody, human IgG1, kappa)
heavy: B1 heavy with L236Y, A239G
light: not shown
notes: H chain: IL6R-F11 with P238D/L234Y (EU numbering); also called P238D/L234Y; copies: 2 + 2
B5: IL6R-PD095/IL6R-L (antibody, human IgG1, kappa)
heavy: B1 heavy with A239Y
light: not shown
notes: H chain: IL6R-F11 with P238D/G237Y (EU numbering); also called P238D/G237Y; copies: 2 + 2
B6: IL6R-PD081/IL6R-L (antibody, human IgG1, kappa)
heavy: B1 heavy with A239E
light: not shown
notes: H chain: IL6R-F11 with P238D/G237E (EU numbering); also called P238D/G237E; copies: 2 + 2
B7: IL6R-PD080/IL6R-L (antibody, human IgG1, kappa)
heavy: B1 heavy with A239D
light: not shown
notes: H chain: IL6R-F11 with P238D/G237D (EU numbering); also called P238D/G237D; copies: 2 + 2
B8: IL6R-PD094/IL6R-L (antibody, human IgG1, kappa)
heavy: B1 heavy with A239W
light: not shown
notes: H chain: IL6R-F11 with P238D/G237W (EU numbering); also called P238D/G237W; copies: 2 + 2
B9: IL6R-BF196/IL6R-L (antibody, human IgG1, kappa)
heavy: B1 heavy with L236Y, A239G, Y254M, H270D, P273G, K328A, A332K, Y436N, K441E
light: not shown
notes: alteration printed: L234Y/P236D/H258D/P271G/K326A/A330K; copies: 2 + 2
B10: IL6R-BF084/IL6R-L (antibody, human IgG1, kappa)
heavy: B1 heavy with A239G, Y254M, V325M, A332K, Y436N, K441E
light: not shown
notes: alteration printed: 9238D/Y325M/A330K; copies: 2 + 2
B11: IL6R-2B253/IL6R-L (antibody, human IgG1, kappa)
heavy: B1 heavy with E235D, A239G, Y254M, V325M, Y436N, K441E
light: not shown
notes: alteration printed: B233D/P238D/V323M; copies: 2 + 2
B12: IL6R-BF180/IL6R-L (antibody, human IgG1, kappa)
heavy: B1 heavy with A239D, Y254M, P273G, A332K, Y436N, K441E
light: not shown
notes: alteration printed: G237D/P238D/P271G/A330K; copies: 2 + 2
B13: IL6R-BF206/IL6R-L (antibody, human IgG1, kappa)
heavy: B1 heavy with E235D, A239G, Y254M, P273G, A332R, Y436N, K441E
light: not shown
notes: alteration printed: BB233D/P238D/P271G/A330R; copies: 2 + 2
B14: IL6R-BF205/IL6R-L (antibody, human IgG1, kappa)
heavy: B1 heavy with E235D, A239G, Y254M, P273G, Y298D, A332R, Y436N, K441E
light: not shown
notes: alteration printed: B233D/P298D/P271G/Y296D/A330R; copies: 2 + 2
B15: IL6R-BF132/IL6R-L (antibody, human IgG1, kappa)
heavy: B1 heavy with E235D, A239G, Y254M, K328A, A332K, Y436N, K441E
light: not shown
notes: alteration printed: B233D/P236D/K326A/A330K; copies: 2 + 2
B16: IL6R-2B251/IL6R-L (antibody, human IgG1, kappa)
heavy: B1 heavy with E235D, A239G, Y254M, Y298D, Y436N, K441E
light: not shown
notes: alteration printed: B233D/P238D/Y296D; also called ILGR-2B261/IL6R-L; copies: 2 + 2
B17: IL6R-BF201/IL6R-L (antibody, human IgG1, kappa)
heavy: B1 heavy with E235D, A239D, Y254M, P273G, A332R, Y436N, K441E
light: not shown
notes: alteration printed: E233D/G237D/P238D/P271G/A330R; copies: 2 + 2
B18: IL6R-BF197/IL6R-L (antibody, human IgG1, kappa)
heavy: QVQLQESGPGLVKPSETLSLTCAVSGHSISHDHAWSWVRQPPGEGLEWIGFISYSGITNYNPSLQGRVTISRDNSKNTLYLQMNSLRAEDTAVYYCARSLARTTAMDYWGEGTLVTVSSASTKGPSVFPLAPSSKSTSGGTAALGCLVKDYFPEPVTVSWNSGALTSGVHTFPAVLQSSGLYSLSSVVTVPSSSLGTQTYICNVNHKPSNTKVDKKVEPKSCDKTHTCPPCPAPDYLGDDSVFLFPPKPKDTLMISRTPEVTCVVVDVSDEDGEVKFNWYVDGVEVHNAKTKPREEQDNSTYRVVSVLTVLHQDWLNGKEYKCKVSNDALPKPIEKTISKAKGQPREPQVYTLPPSRDELTKNQVSLTCLVKGFYPSDIAVEWESNGQPENNYKTTPPVLDSDGSFFLYSKLTVDKSRWQQGNVFSCSVMHEALHNHYTQESLSLSP
light: not shown
notes: alteration printed: B233D/L234Y/G237D/P238D/H268D/P271G/Y296D/Y326D/A330K; copies: 2 + 2
B19: IL6R-BF147/IL6R-L (antibody, human IgG1, kappa)
heavy: B18 heavy with D235E, D270H, G273P, D298Y, D328A
light: not shown
notes: alteration printed: L234Y/G237D/P238D/K326A/A330K; copies: 2 + 2
B20: IL6R-BF188/IL6R-L (H chain SEQ ID NO 103) (antibody, human IgG1, kappa)
heavy: B18 heavy with Y236L, D298Y, D328K
light: not shown
notes: alteration printed: B233D/G237D/P238D/H268D/P271G/A330K; copies: 2 + 2

What is called Kd is a measure of binding affinity in units of concentration. The low end stands for tighter binding, the high end for weaker binding.

Substitutions are numbered along the chain they refer to. In names and notes the source's numbering stands.

T4 sequence (P08637 17-208 F176V): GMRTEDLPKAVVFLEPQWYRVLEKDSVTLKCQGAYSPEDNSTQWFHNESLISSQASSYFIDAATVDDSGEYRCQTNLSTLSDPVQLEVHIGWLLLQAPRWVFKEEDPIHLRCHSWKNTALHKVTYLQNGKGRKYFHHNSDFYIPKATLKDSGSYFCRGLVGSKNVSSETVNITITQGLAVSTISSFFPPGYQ

In the first experiment the target is T1, FcγRIIa type R extracellular domain …. Put plainly: SPR (Biacore), Reference Example 2. The text has this: (§1) Furthermore, KD(IIaR)/KD(IIb) and KD(IIaH)/KD(IIb) in the table respectively show the value obtained by dividing the KD value of each variant for FcγRIIaR by the KD value of each variant for FcγRIIb, and the value obtained by dividing the KD value of each variant for FcγRIIaH by the KD value of each variant for FcγRIIb. KD(IIb) of the parent polypeptide/KD(IIb) of the altered polypeptide refers to a value obtained by dividing the KD value of the parent polypeptide for FcγRIIb by the KD value of each variant for FcγRIIb.
(§2) Kinetic analyses for calculating the KD values of each altered antibody for FcγR were performed according to the following method. First, antibodies of interest were captured onto the above-mentioned sensor chips, and an Fcγ receptor diluted with the running buffer was allowed to interact. The Biacore™ Evaluation Software was used to globally fit the measured results to the obtained sensorgram using the 1:1 Langmuir binding model, and the association rate constant ka (L/mol/s) and the dissociation rate constant kd (1/s) were calculated; and from those values the dissociation constants KD (mol/L) were calculated.
In general terms: SPR reads the build-up and loss of mass on a sensor chip optically.
Turning to B1, the equilibrium dissociation constant (Kd) is 32 µM.
Turning to B2, binding was put at a Kd of 22 µM.
B3 came in with a Kd of 14 µM.
Same read-out and setting: the figure for B4 is 26 µM; for B5 it is 7.9 µM.
Take B6: the Kd stood at 38 µM.
On the same count and under the same terms, the figure for B7 is 21 µM; for B8 it is 7.2 µM.

The next experiment addresses T4, FcγRIIIa type V extracellular domain with C-terminal His tag (human, UniProt P08637 17-208).
T4 construct: extracellular domain; also called FcIIIaV; FcgRIIIaV; not shown: His tag at the C terminus
Put plainly: SPR (Biacore), antibody captured, FcgR analyte.
From the text: as §1, with “In the table, SEQ ID NO refers to the SEQ ID NO of the H chain of the evaluated variant, and alteration refers to the alteration introduced into IL6R-B3 (SEQ ID NO: 40). […] Furthermore,” for “Furthermore,”, “respectively represent” for “respectively show”, “to the” for “to a”
as §2
As to B9, binding was put at a Kd of 5.1 µM.
B10: binding was characterised by a dissociation constant (Kd) of 6.7 µM.
Molecule B11 had a Kd of 5 µM.
Still for that read-out and setting: to B12 belongs 7 µM; to B13, 6.9 µM.
In turn, B14 showed a Kd of 6.8 µM.
B15: the dissociation constant Kd turned out to be 50 µM.

In the next experiment the target is T2, FcγRIIb extracellular domain with …. Put plainly: SPR (Biacore), antibody captured, FcgR analyte.
From the text: as §1, with “In the table, SEQ ID NO refers to the SEQ ID NO of the H chain of the evaluated variant, and alteration refers to the alteration introduced into IL6R-B3 (SEQ ID NO: 40). […] Furthermore,” for “Furthermore,”, “respectively represent” for “respectively show”, “to the” for “to a”
as §2
In turn, B16 registered a Kd of 10 µM.
B17 returned a Kd of 40 µM.

Another experiment addresses T3, FcγRIIa type R extracellular domain …. Kind of experiment: SPR (Biacore), antibody captured, FcgR analyte.
From the text: as §1, with “In the table, SEQ ID NO refers to the SEQ ID NO of the H chain of the evaluated variant, and alteration refers to the alteration introduced into IL6R-B3 (SEQ ID NO: 40). […] Furthermore,” for “Furthermore,”, “respectively represent” for “respectively show”, “to the” for “to a”
as §2
For the molecule B18, the Kd was 0.88 µM.
For the molecule B9, the Kd amounted to 0.03 µM.
Turning to B19, the Kd came to 0.83 µM.
Take B20: the Kd came to 1 µM.
The same measure, in the same setting: to B11 belongs 0.05 µM.
Same read-out and setting: the figure for B12 is 1.2 µM; for B17 it is 0.84 µM.
The same measure, in the same setting: the figure for B13 is 3.1 µM; for B14 it is 3.5 µM; for B15 it is 8 µM.
